Reference: US11965032
pKd: −log10 of the molar value.

Key:
[1] = biological target: C1q in the complement system (rabbit serum as the source of complement) (rabbit); assay: cell-based or functional assay
[2] = biological target: FcγIIIA Receptor on the effector cells (human) (UniProt P08637); assay: cell-based or functional assay
[3] = biological target: FcRn (human Fc receptor panel, Octet) (human) (UniProt P55899); assay: BLI (Octet HTX), receptor on anti-penta-His biosensor, 1:1 model
[4] = biological target: FcγRI (human Fc receptor panel, Octet) (human) (UniProt P12314); assay: as above
Sequence of FcγRI (human Fc receptor panel, Octet) (human) (P12314 16-288 limits assumed): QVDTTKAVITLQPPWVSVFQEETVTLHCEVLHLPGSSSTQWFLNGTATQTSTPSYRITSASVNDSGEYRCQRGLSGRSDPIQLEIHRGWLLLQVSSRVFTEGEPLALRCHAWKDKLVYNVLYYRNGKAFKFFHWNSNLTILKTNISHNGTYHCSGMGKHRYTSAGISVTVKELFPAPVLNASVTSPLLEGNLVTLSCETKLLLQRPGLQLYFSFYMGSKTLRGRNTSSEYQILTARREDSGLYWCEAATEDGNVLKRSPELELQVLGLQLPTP

[5] = biological target: FcγRIIA (human Fc receptor panel, Octet) (human) (UniProt P12318); assay: as above
Sequence of FcγRIIA (human Fc receptor panel, Octet) (human) (P12318 36-218 limits assumed): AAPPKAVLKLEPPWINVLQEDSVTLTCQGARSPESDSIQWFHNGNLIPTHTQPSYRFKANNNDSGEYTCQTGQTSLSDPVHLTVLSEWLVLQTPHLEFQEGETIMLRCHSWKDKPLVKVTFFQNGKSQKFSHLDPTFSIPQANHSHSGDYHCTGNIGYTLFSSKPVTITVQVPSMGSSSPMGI

[6] = biological target: FcγRIIB/C (human Fc receptor panel, Octet) (human) (UniProt P31994); assay: as above
Sequence of FcγRIIB/C (human Fc receptor panel, Octet) (human) (P31994 46-217 limits assumed): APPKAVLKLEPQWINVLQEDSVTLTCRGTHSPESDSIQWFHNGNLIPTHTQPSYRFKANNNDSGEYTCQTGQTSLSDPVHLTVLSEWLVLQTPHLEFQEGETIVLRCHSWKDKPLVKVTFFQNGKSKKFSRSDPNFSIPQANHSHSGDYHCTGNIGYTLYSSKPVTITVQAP

[7] = biological target: FcγRIIIB (human Fc receptor panel, Octet) (human) (UniProt O75015); assay: as above
Sequence of FcγRIIIB (human Fc receptor panel, Octet) (human) (O75015 17-200 limits assumed): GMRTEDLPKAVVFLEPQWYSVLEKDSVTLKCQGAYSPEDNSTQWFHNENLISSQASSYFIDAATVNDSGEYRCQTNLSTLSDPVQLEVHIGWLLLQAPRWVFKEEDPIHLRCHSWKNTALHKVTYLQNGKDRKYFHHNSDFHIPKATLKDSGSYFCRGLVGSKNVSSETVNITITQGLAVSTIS

[8] = biological target: FcγRIIIa 158V receptor (SPR assay) (UniProt P08637); assay: SPR, receptor amine-coupled to the chip, antibody injected, 1:1 kinetics
Sequence of FcγRIIIa 158V receptor (SPR assay) (P08637 17-208 F176V limits assumed): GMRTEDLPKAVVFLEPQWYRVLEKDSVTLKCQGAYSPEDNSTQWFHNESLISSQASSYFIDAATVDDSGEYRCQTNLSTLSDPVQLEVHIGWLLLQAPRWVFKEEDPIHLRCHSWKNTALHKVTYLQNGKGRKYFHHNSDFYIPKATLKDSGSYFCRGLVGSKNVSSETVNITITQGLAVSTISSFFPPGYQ

[9] = biological target: FcγRIIIa 158F receptor (SPR assay) (UniProt P08637); assay: SPR, receptor amine-coupled to the chip, antibody injected, steady state affinity
Sequence of FcγRIIIa 158F receptor (SPR assay) (P08637 17-208 limits assumed): as the sequence (P08637 17-208 F176V limits assumed) above, with V160F counted along it

[10] = biological target: CD20 on Jeko-1, Raji and Daudi cells (human) (UniProt P11836); assay: cell-based MSD electrochemiluminescence binding assay on CD20 expressing Jeko-1 cells
Sequence of CD20 on Jeko-1, Raji and Daudi cells (human) (P11836 whole entry): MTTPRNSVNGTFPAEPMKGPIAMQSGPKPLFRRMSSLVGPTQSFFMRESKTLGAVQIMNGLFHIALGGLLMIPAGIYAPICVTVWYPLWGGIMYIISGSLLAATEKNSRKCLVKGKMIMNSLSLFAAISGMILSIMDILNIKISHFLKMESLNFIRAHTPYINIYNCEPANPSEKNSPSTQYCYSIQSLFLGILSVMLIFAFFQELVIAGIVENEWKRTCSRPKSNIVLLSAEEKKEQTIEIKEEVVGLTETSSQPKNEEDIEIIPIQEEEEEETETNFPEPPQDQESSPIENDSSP

[11] = biological target: FcγRIIIA F158 (human Fc receptor panel, Octet) (human) (UniProt P08637); assay: BLI (Octet HTX), receptor on anti-penta-His biosensor, 1:1 model
Sequence of FcγRIIIA F158 (human Fc receptor panel, Octet) (human) (P08637 17-208 limits assumed): as the sequence (P08637 17-208 F176V limits assumed) above, with V160F counted along it

[12] = biological target: FcγRIIIA V158 (human Fc receptor panel, Octet) (human) (UniProt P08637); assay: as above
Sequence of FcγRIIIA V158 (human Fc receptor panel, Octet) (human) (P08637 17-208 F176V limits assumed): as the sequence (P08637 17-208 F176V limits assumed) above

[13] = biological target: FcγRIIIa 158F receptor (SPR assay) (UniProt P08637); assay: SPR, relative to the TG-1101 reference standard
[14] = biological target: FcγRIIIa 158V receptor (SPR assay) (UniProt P08637); assay: SPR, relative to the TG-1101 reference standard
[15] = biological target: HRP conjugated human C1q (human) (UniProt P02745); assay: ELISA, antibody coated on the plate, HRP conjugated human C1q
Sequence of HRP conjugated human C1q (human) (P02745 23-245 limits assumed, chain 1 of 3): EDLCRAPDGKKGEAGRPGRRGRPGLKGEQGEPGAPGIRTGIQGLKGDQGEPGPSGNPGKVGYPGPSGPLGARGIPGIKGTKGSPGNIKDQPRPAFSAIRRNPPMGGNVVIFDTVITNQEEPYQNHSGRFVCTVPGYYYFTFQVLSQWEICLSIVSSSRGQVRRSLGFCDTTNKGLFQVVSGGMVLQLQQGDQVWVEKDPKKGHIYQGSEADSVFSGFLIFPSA
Sequence of HRP conjugated human C1q (human) (P02746 28-253 limits assumed, chain 2 of 3, further chain): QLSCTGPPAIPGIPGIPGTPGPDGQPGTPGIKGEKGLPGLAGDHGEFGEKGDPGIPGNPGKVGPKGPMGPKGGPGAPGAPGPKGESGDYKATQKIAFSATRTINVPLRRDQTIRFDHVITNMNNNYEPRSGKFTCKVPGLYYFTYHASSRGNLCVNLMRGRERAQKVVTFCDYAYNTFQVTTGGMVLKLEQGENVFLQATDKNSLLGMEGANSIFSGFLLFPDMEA
Sequence of HRP conjugated human C1q (human) (P02747 29-245 limits assumed, chain 3 of 3, further chain): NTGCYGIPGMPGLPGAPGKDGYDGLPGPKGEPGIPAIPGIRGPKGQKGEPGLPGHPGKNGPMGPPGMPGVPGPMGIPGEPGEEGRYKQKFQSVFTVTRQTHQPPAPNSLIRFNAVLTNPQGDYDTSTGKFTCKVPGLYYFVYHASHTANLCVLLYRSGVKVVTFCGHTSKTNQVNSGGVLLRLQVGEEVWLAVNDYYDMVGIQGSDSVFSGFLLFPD

Sequence of FcγIIIA Receptor on the effector cells (human) (P08637 17-254): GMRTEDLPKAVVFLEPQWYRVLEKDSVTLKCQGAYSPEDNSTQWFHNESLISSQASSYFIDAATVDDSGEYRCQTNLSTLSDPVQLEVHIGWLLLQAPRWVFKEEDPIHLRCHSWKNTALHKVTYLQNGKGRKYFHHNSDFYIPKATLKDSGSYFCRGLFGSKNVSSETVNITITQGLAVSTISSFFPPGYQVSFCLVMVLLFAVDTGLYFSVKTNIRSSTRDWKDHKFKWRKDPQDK

| CDC EC50 (Jeko-1 cells, rabbit serum complement) [1] [µg/mL] | ADCC EC50 (Raji target cells, KILR CD16a effector cells) [2] [ng/mL] | EC50 of ADCC assay Using Primary NK Cells (Raji target cells, LDH release) [2] [µg/mL] | pKd [3] | pKd [4] | pKd [5] | pKd [6] | pKd [7] | pKd [8] | pKd [9] | EC50 [10] [µg/mL] | pKd [11] | pKd [12] | Relative Affinity (%) [13] [%] | Relative Binding (%) [13] [%] | Relative Affinity (%) [14] [%] | Relative Binding (%) [14] [%] | EC50 [15] [µg/mL] | Substance |
| --- | --- | --- | --- | --- | --- | --- | --- | --- | --- | --- | --- | --- | --- | --- | --- | --- | --- | --- |
| 0.245 | 5.46 | 1390 | 7.37 | 7.82 | 6.60 | 6.68 | 6.51 | 5.92 | 5.16 | 0.133 |  |  |  |  |  |  |  | RITUXAN (rituximab) (antibody) |
| 0.353 | 0.0741 | 500 | 7.19 | 7.68 | 6.63 | 6.81 | 6.51 | 5.78 | 4.83 | 0.092 | 6.32 | 6.68 |  |  |  |  |  | ARZERRA (ofatumumab) (antibody) |
|  | 0.00658 | 19 | 7.41 | 7.59 | 6.55 | 6.65 | 6.56 | 6.62 | 5.75 | 0.053 | 7.01 | 7.40 | 37.6 | 33 | 27.6 | 19.6 |  | GAZYVA (obinutuzumab) (antibody) |
| 1.21 | 0.0608 |  | 7.21 | 7.72 | 6.20 | 6.44 | 5.68 | 5.99 | 5.17 |  | 6.23 | 6.86 |  |  |  |  | 2.9 | OCREVUS (ocrelizumab) (antibody) |
